Test results as given in paper PMC6434023, “A TonB-dependent transporter is required for secretion of protease PopC across the bacterial outer membrane” (Nature Communications, 2019).

Molecular target: T1, PopC expressed in E. coli (M. xanthus, UniProt Q1DFT5 1-475)
T1 construct: PopC of Myxococcus xanthus, expressed as 'native' PopC in E. coli; no tag is named; 'Native' probably means the untagged whole protein; also called native PopC; source: E. coli Rosetta-2(DE3) (WT or ΔtonB), IPTG-induced, in isolated membranes / cell fractions
T1 sequence (looked up): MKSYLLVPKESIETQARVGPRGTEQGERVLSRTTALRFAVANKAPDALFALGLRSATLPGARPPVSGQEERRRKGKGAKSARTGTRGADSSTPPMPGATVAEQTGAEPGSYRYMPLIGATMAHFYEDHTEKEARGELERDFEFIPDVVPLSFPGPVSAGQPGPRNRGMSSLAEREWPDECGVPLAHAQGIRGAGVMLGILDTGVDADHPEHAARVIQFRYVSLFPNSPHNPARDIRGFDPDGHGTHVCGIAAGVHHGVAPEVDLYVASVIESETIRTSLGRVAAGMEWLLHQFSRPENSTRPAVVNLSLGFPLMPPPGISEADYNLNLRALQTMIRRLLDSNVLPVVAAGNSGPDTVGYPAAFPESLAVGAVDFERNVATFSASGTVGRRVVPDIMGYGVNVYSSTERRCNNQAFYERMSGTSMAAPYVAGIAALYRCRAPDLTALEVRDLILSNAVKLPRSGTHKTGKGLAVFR
Test: affinity purification with mass spectrometry; the co-IP samples (α-PopC on E. coli membranes, WT and ΔtonB) analysed by label-free quantitative MS; iBAQ ratio of Oar with PopC over without PopC, normalised to the input
Settings: partners not purified

B1: Oar expressed in E. coli (natural protein, M. xanthus, UniProt P38370 27-1061, looked up)
chain: QSSTIIGTVIDAQSRQPAADVVVTATSPNLQGEQTVVTDAQGNYRIPQLPPGDYTLRFEKEQFKPYARSAIQLRLNRTIRVNVELLPEALGEVVEIVGAPPTIDVGSTTMGVNVDQEFIKRIAVARPGGKGGATRSFESLAELAPGAQNDNYGVSINGSTSPENGYVVDGLSTNDPAFGVNASPLSIEFVQDVNIITGGYMPEFGRSTGGVINAVTRSGSNEFHGSVFANWTPGTLEGTRKQIREEGTVITGQNQLQNLGDFGATLGGPILKDKLWFFAGFAPSFTRYQHTRTLNALRVDDEGNTIKDETDFTVADAIPGSARKYYADSRTIQYMGKLTYLINQDHNVSFALNGTPTSTGGLGKLSVNPQSGGLPGVLATRPGDFGLTETKANTTSLALKYAGAFADKKVLVDANLGWFHQTASTLPGDGSNLGDRTGLAGYSRMVYTTPRALTLFEALPEGQEGACGSTPEEQLVRSPVTGYGVGGPGFMSDQTLDRYQANAKATYLLNALGTHVFKAGVDVELLSFDQVKAYGGGVFFQEGSNYGVAGQGPAVHDARRYGYQTGPDSAVTQFTQVAKTTSTTVGGFLQDSWSIANRVTLNLGVRYDVQALYGGNGDLSLLLGNQWSPRIGAIVDPFANGRAKVFVNFARYYEQVPLNLMDRAFPGENRISARRSLAEPGQGTATSCDPSSFESQQATCNTDSNLLAIPESSRNVNRFYTGGTVGGTPVDPDIKAQSSDEIVVGAEYEVLANTRLGASYTHKDMNSVIEDMSRDDGNTYFLGNPGSGFAGEFPTPVRNYDNVTVYLNRTFADGWLAQANYTWSRLYGNYPGLFRPETGQLDPNILSDFDLIELLENRTGLLPFDRTHQIKVFGAKEFNISNALSASVGVSYRGSSGTPINYWGSHWAYLQDESFVLPRGAGGRTPWINTIDSNIGVNYRVSKDSVVSFTLDVFNLFNFQGVNTVDQTYTLRDIKPIPGGTPADLENLPGRVEFQDQAPRDEPFGSVDGDVNKNFKNPLSYQAPRQVRFGIRYTF
notes: Oar (MXAN_1450) of Myxococcus xanthus, expressed as 'native' Oar in E. coli; no tag is named; 'Native' probably means the untagged protein with its own signal peptide; it was found enriched in the E. coli outer membrane; also called native Oar; source: E. coli Rosetta-2(DE3) (WT or ΔtonB), IPTG-induced, in isolated membranes / cell fractions
- fold enrichment of Oar in the α-PopC co-IP, with PopC over without PopC (iBAQ ratio), WT E. coli: 4.9 fold
- fold enrichment of Oar in the α-PopC co-IP, with PopC over without PopC (iBAQ ratio), ΔtonB E. coli: 15.1 fold
